Results taken from patent US20220135628A1 (OXFORD UNIVERSITY INNOVATION, published 2022).
Where two headings read alike, the source gives them in different places. No end group written: not given here.

Experiments:
SpyTag003-MBP [1] = test: SDS-PAGE with sfGFP fluorescence, pH 7.0, 25 C
SpyTag002-MBP = biological target: T1, SpyTag002-MBP (also: fused to MBP, sequence and linker not given here); test: SDS-PAGE with sfGFP fluorescence, pH 7.0, 25 C
T1 construct: not shown: construct pET28a SpyTag002-MBP, GenBank MF974389
T1 chain: VPTIVMVDAYKRYK

SpyTag-MBP = biological target: T2, SpyTag-MBP; test: SDS-PAGE with sfGFP fluorescence, pH 7.0, 25 C
T2 construct: not shown: construct pET28a-SpyTag-MBP, Addgene 35050

SpyTag003-MBP [2] = test: SDS-PAGE with sfGFP fluorescence, pH 7.0, 25 C; remark: listed apart in the source
SpyTag003 DA-MBP = biological target: T3, SpyTag003 DA-MBP (also: fused to MBP, sequence and linker not given here); test: isothermal titration calorimetry, 20 C, PBS pH 7.4, non-covalent complex
T3 chain: RGVPHIVMVAAYKRYK

B1: SpyCatcher003-sfGFP (designed binder)
chain: VTTLSGLSGEQGPSGDMTTEEDSATHIKFSKRDEDGRELAGATMELRDSSGKTISTWISDGHVKDFYLYPGKYTFVETAAPDGYEVATPIEFTVNEDGQVTVDGEATEGDAHT
notes: also called SpyCatcher003 fused to the N-terminus of super-folder GFP; not shown: super-folder GFP (sfGFP) C-terminal of the catcher
With B1 the “Rate constant (second-order, isopeptide bond formation)” value (“Rate constant” below) (SpyTag003-MBP [1]) was 550000 M⁻¹ s⁻¹, the “Rate constant” value (SpyTag002-MBP) was 83000 M⁻¹ s⁻¹ and the “Rate constant” value (SpyTag-MBP) was 24000 M⁻¹ s⁻¹. For the same binder, the “Rate constant” value (SpyTag003-MBP [2]) was 550000 M⁻¹ s⁻¹.

B2: SpyCatcher003 (designed binder)
chain: VTTLSGLSGEQGPSGDMTTEEDSATHIKFSKRDEDGRELAGATMELRDSSGKTISTWISDGHVKDFYLYPGKYTFVETAAPDGYEVATPIEFTVNEDGQVTVDGEATEGDAHT
notes: also called 003 Catcher
With B2 the Kd (SpyTag003 DA-MBP) was < 10 nM.
